# From patent publication US20240270846A1 (published 2024)
# Where a chain is given by its changes, count along the chain named. Names may count otherwise.
# B1: CE115HA000/GLS3000 T92L one-arm antibody (antibody, human IgG1, kappa, L234A L235A, N297A, name in Kabat numbering)
# heavy: QVQLVESGGGVVQPGRSLRLSCAASGFTFSNAWMHWVRQAPGKGLEWVAQIKAKSNNYATYYAESVKGRFTISRDDSKNSLYLQMNSLKTEDTAVYYCRYVHYGAYYGVDAWGQGTTVTVSSASTKGPSVFPLAPSSKSTSGGTAALGCLVKDYFPEPVTVSWNSGALTSGVHTFPAVLQSSGLYSLSSVVTVPSSSLGTQTYICNVNHKPSNTKVDKKVEPKSCDKTHTCPPCPAPEAAGGPSVFLFPPKPKDTLMISRTPEVTCVVVDVSHEDPEVKFNWYVDGVEVHNAKTKPREEQYASTYRVVSVLTVLHQDWLNGKEYKCKVSNKALPAPIEKTISKAKGQPREPQVYTLPPSRCELTKNQVSLSCAVKGFYPSDIAVEWESNGQPENNYKTTPPVLDSDGSFFLVSKLTVDKSRWQQGNVFSCSVMHEALHNHYTQKSLSLSPDYKDDDDK
# chain: EPKSSDKTHTCPPCPAPELLGGPSVFLFPPKPKDTLMISRTPEVTCVVVDVSHEDPEVKFNWYVDGVEVHNAKTKPREEQYNSTYRVVSVLTVLHQDWLNGKEYKCKVSNKALPAPIEKTISKAKGQPREPQVCTLPPSRDELTKNQVSLWCLVKGFYPSDIAVEWESNGQPENNYKTTPPVLDSDGSFFLYSKLTVDKSRWQQGNVFSCSVMHEALHNRYTQKSLSLSP
# light: DIVMTQSPLSLPVTPGEPASISCRSSQSLVHSNRNTYLHWYQQKPGQAPRLLIYKVSNRFSGVPDRFSGSGSGTDFTLKISRVEAEDVGVYYCGQGLQVPYTFGQGTKLEIKRTVAAPSVFIFPPSDEQLKSGTASVVCLLNNFYPREAKVQWKVDNALQSGNSQESVTEQDSKDSTYSLSSTLTLSKADYEKHKVYACEVTHQGLSSPVTKSFNRGEC
# notes: one-arm IgG1
# B2: CE115HA000/GLS3000 V94D one-arm antibody (antibody, human IgG1, kappa, L234A L235A, N297A, name in Kabat numbering)
# heavy: B1 heavy
# chain: B1 chain
# light: B1 light with L97T, V99D
# notes: one-arm IgG1
# B3: CE115HA000/GLS3000 V94F one-arm antibody (antibody, human IgG1, kappa, L234A L235A, N297A, name in Kabat numbering)
# heavy: B1 heavy
# chain: B1 chain
# light: B1 light with L97T, V99F
# notes: one-arm IgG1
# B4: CE115HA000/GLS3000 V51E one-arm antibody (antibody, human IgG1, kappa, L234A L235A, N297A, name in Kabat numbering)
# heavy: B1 heavy
# chain: B1 chain
# light: B1 light with V56E, L97T
# notes: one-arm IgG1
# B5: CE115HA000/GLS3000 V51I one-arm antibody (antibody, human IgG1, kappa, L234A L235A, N297A, name in Kabat numbering)
# heavy: B1 heavy
# chain: B1 chain
# light: B1 light with V56I, L97T
# notes: one-arm IgG1
# B6: CE115HA000/GLS3000 V51G one-arm antibody (antibody, human IgG1, kappa, L234A L235A, N297A, name in Kabat numbering)
# heavy: B1 heavy
# chain: B1 chain
# light: B1 light with V56G, L97T
# notes: one-arm IgG1
# B7: CE115HA000/GLS3000 V94E one-arm antibody (antibody, human IgG1, kappa, L234A L235A, N297A, name in Kabat numbering)
# heavy: B1 heavy
# chain: B1 chain
# light: B1 light with L97T, V99E
# notes: one-arm IgG1
# B8: CE115HA000/GLS3000 V51P one-arm antibody (antibody, human IgG1, kappa, L234A L235A, N297A, name in Kabat numbering)
# heavy: B1 heavy
# chain: B1 chain
# light: B1 light with V56P, L97T
# notes: one-arm IgG1
# B9: CE115HA000/GLS3000 V94A one-arm antibody (antibody, human IgG1, kappa, L234A L235A, N297A, name in Kabat numbering)
# heavy: B1 heavy
# chain: B1 chain
# light: B1 light with L97T, V99A
# notes: one-arm IgG1
# B10: CE115HA000/GLS3000 V94G one-arm antibody (antibody, human IgG1, kappa, L234A L235A, N297A, name in Kabat numbering)
# heavy: B1 heavy
# chain: B1 chain
# light: B1 light with L97T, V99G
# notes: one-arm IgG1
# B11: CE115HA000/GLS3000 V51D one-arm antibody (antibody, human IgG1, kappa, L234A L235A, N297A, name in Kabat numbering)
# heavy: B1 heavy
# chain: B1 chain
# light: B1 light with V56D, L97T
# notes: one-arm IgG1
# Target: T1, CD3 epsilon homodimer protein (UniProt P07766 23-126)
# T1 construct: also called CD3 (CD3 epsilon)
# Test: SPR (Biacore T200), CD3e homodimer on CM4 chip, antibody as analyte; KD ratio vs unaltered GLS3000;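 also: CD3 epsilon homodimer amine-coupled to the sensor surface, antibodies injected as analyte at 25 °C with HBS-EP+ running buffer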
# T1 sequence (P07766 23-126): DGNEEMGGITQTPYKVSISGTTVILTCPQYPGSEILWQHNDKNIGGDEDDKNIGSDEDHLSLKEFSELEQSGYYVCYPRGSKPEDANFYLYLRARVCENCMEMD
row,KD ratio to GLS3000,Binder
1,1.61 ratio,B1
2,1.05 ratio,B2
3,1.75 ratio,B3
4,0.88 ratio,B4
5,0.69 ratio,B5
6,0.83 ratio,B6
7,1.18 ratio,B7
8,6 ratio,B8
9,1.05 ratio,B9
10,2.59 ratio,B10
11,1.5 ratio,B11
